Assay results: the Human Domainome abundance scans (Beltran et al. 2025)
± gives the uncertainty stated by the source.

B1: Poly(rC)-binding protein 1, residues 278 to 350; numbered along this chain, Q15365 (parent)
chain: TQTTHELTIPNNLIGCIIGRQGANINEIRQMSGAQIKIANPVEGSSGRQVTITGSAASISLAQYLINARLSSE
B2: Histidine--tRNA ligase, cytoplasmic, residues 8 to 45; numbered along this chain, P12081 (parent)
chain: EELVKLQGERVRGLKQQKASAELIEEEVAKLLKLKAQL

Variants of: B1
Assay: abundance fitness (aPCA) (normalised: wild type 0, dead -1); higher = more abundant; growth selection in yeast, the domain comes from the species named
Conditions: Homo sapiens
T4M gave an abundance fitness of -0.189 ± 0.073. Work on T4H yielded an abundance fitness of -0.26 ± 0.13. In the case of T4Q, the abundance fitness is reported as -0.087 ± 0.073. T4P gave an abundance fitness of -0.271 ± 0.077. Work on T4D yielded an abundance fitness of -0.284 ± 0.084. Work on T1E yielded an abundance fitness of 0.106 ± 0.085. Work on T1I yielded an abundance fitness of 0.094 ± 0.084. With T1W the abundance fitness was -0.287 ± 0.083. Variant T1G has an abundance fitness of -0.02 ± 0.048. T1S gave an abundance fitness of 0.012 ± 0.061. T1C gave an abundance fitness of -0.218 ± 0.12. T1K gave an abundance fitness of -0.191 ± 0.12. With T1Y the abundance fitness was -0.072 ± 0.16. With T1N the abundance fitness was 0.194 ± 0.12. With T1Q the abundance fitness was -0.559 ± 0.24. With T1D the abundance fitness was 0.167 ± 0.097. T1V gave an abundance fitness of 0.061 ± 0.058. Variant T1P has an abundance fitness of -0.141 ± 0.15. Variant T1M has an abundance fitness of 0.058 ± 0.088. T1A showed an abundance fitness of -0.086 ± 0.066. Variant Q2T has an abundance fitness of 0.142 ± 0.051. For Q2R, the abundance fitness was 0.054 ± 0.037. Work on Q2A yielded an abundance fitness of -0.177 ± 0.041. In the case of Q2Y, the abundance fitness is reported as 0.082 ± 0.087. For Q2E, the abundance fitness was -0.077 ± 0.044. Q2D showed an abundance fitness of 0.052 ± 0.073. With Q2V the abundance fitness was 0.015 ± 0.043. Work on Q2K yielded an abundance fitness of 0.101 ± 0.046. Work on Q2I yielded an abundance fitness of 0.118 ± 0.093. For Q2C, the abundance fitness was -0.263 ± 0.064. Work on Q2P yielded an abundance fitness of -0.128 ± 0.079. With Q2M the abundance fitness was 0.075 ± 0.054. Q2G showed an abundance fitness of 0.031 ± 0.035. In the case of Q2W, the abundance fitness is reported as 0.017 ± 0.04. For N11D, the abundance fitness was 0.186 ± 0.076. Work on N11L yielded an abundance fitness of -0.473 ± 0.084. With N11F the abundance fitness was -0.061 ± 0.11. For N11A, the abundance fitness was -0.075 ± 0.054. Work on N11E yielded an abundance fitness of -0.045 ± 0.061. N11C showed an abundance fitness of -0.165 ± 0.1. With N11T the abundance fitness was -0.169 ± 0.084. N11M showed an abundance fitness of -0.28 ± 0.1. N11S gave an abundance fitness of -0.09 ± 0.064. Variant N11Y has an abundance fitness of -0.549 ± 0.26. With N11H the abundance fitness was -0.025 ± 0.16. N11W gave an abundance fitness of -0.425 ± 0.075. N11V gave an abundance fitness of -0.352 ± 0.061. Variant N11I has an abundance fitness of -0.21 ± 0.21. With N11P the abundance fitness was -0.347 ± 0.077. N11R gave an abundance fitness of -0.264 ± 0.049. Variant N11K has an abundance fitness of -0.171 ± 0.098. For P10C, the abundance fitness was -0.577 ± 0.13. For P10G, the abundance fitness was -0.474 ± 0.054. Variant P10H has an abundance fitness of -0.442 ± 0.19. Variant P10N has an abundance fitness of -0.938 ± 0.37. Work on P10D yielded an abundance fitness of -0.363 ± 0.093. For P10W, the abundance fitness was -0.915 ± 0.14. With P10R the abundance fitness was -0.504 ± 0.061. P10V gave an abundance fitness of -0.707 ± 0.1. In the case of P10Q, the abundance fitness is reported as -0.538 ± 0.1. Variant P10A has an abundance fitness of -0.117 ± 0.05. Work on P10L yielded an abundance fitness of -0.597 ± 0.083. In the case of P10T, the abundance fitness is reported as -0.549 ± 0.11. In the case of P10I, the abundance fitness is reported as -0.696 ± 0.49. With P10S the abundance fitness was -0.274 ± 0.061. P10E gave an abundance fitness of -0.237 ± 0.076. With P10K the abundance fitness was -0.181 ± 0.077. For P10M, the abundance fitness was -0.868 ± 0.17.

Variants of: B2
Assay: as above
Conditions: Homo sapiens
EELVKLQGERVRGLKQQKASAELIEEEVAKLLKVKAQL gave an abundance fitness of -0.064 ± 0.093. With EELVKLQGERVRGLKQQKASAELIEEEVAKLLKWKAQL the abundance fitness was -0.237 ± 0.088. In the case of EELVKLQGERVRGLKQQKASAELIEEEVAKLLKYKAQL, the abundance fitness is reported as -0.093 ± 0.093. Variant EELVKLQGERVRGLKQQKASAELIEEEVAKLLKLKAQQ has an abundance fitness of 0.166 ± 0.1. EELVKLQGERVRGLKQQKASAELIEEEVAKLLKLKAQN showed an abundance fitness of -0.05 ± 0.19. EELVKLQGERVRGLKQQKASAELIEEEVAKLLKLKAQA showed an abundance fitness of 0.15 ± 0.14. For EELVKLQGERVRGLKQQKASAELIEEEVAKLLKLKAQV, the abundance fitness was -0.209 ± 0.18. In the case of EELVKLQGERVRGLKQQKASAELIEEEVAKLLKLKAQE, the abundance fitness is reported as 0.204 ± 0.11. In the case of EELVKLQGERVRGLKQQKASAELIEEEVAKLLKLKAQW, the abundance fitness is reported as -0.154 ± 0.2. Work on EELVKLQGERVRGLKQQKASAELIEEEVAKLLKLKAQS yielded an abundance fitness of 0.009 ± 0.093. EELVKLQGERVRGLKQQKASAELIEEEVAKLLKLKAQK showed an abundance fitness of 0.14 ± 0.25. In the case of EELVKLQGERVRGLKQQKASAELIEEEVAKLLKLKAQD, the abundance fitness is reported as 0.003 ± 0.26. EELVKLQGERVRGLKQQKASAELIEEEVAKLLKLKAQH showed an abundance fitness of -0.012 ± 0.15. Variant EELVKLQGERVRGLKQQKASAELIEEEVAKLLKLKAQM has an abundance fitness of 0.193 ± 0.13. EELVKLQGERVRGLKQQKASAELIEEEVAKLLKLKAQR showed an abundance fitness of -0.067 ± 0.12. EELVKLQGERVRGLKQQKASAELIEEEVAKLLKLKAQI showed an abundance fitness of -0.389 ± 0.11. EELVKLQGERVRGLKQQKASAELIEEEVAKLLKLKAQT showed an abundance fitness of 0.034 ± 0.094. In the case of EELVKLQGERVRGLKQQKASAELIEEEVAKLLKLKAQF, the abundance fitness is reported as -0.526 ± 0.12. Work on EELVKLQGERVRGLKQQKASAELIEEEVAKLLKLKAQP yielded an abundance fitness of -0.026 ± 0.08. For EELVKLQGERVRGLKQQKASAELIEEEVAKLLKLKAYL, the abundance fitness was -0.532 ± 0.1. EELVKLQGERVRGLKQQKASAELIEEEVAKLLKLKAEL showed an abundance fitness of 0.28 ± 0.16. EELVKLQGERVRGLKQQKASAELIEEEVAKLLKLKAAL showed an abundance fitness of 0.152 ± 0.089. With EELVKLQGERVRGLKQQKASAELIEEEVAKLLKLKAGL the abundance fitness was 0.191 ± 0.089. Variant EELVKLQGERVRGLKQQKASAELIEEEVAKLLKLKADL has an abundance fitness of 0.119 ± 0.12. Work on EELVKLQGERVRGLKQQKASAELIEEEVAKLLKLKANL yielded an abundance fitness of -0.04 ± 0.11. Variant EELVKLQGERVRGLKQQKASAELIEEEVAKLLKLKARL has an abundance fitness of -0.143 ± 0.074. In the case of EELVKLQGERVRGLKQQKASAELIEEEVAKLLKLKATL, the abundance fitness is reported as -0.113 ± 0.075. EELVKLQGERVRGLKQQKASAELIEEEVAKLLKLKAIL gave an abundance fitness of -0.29 ± 0.075. For EELVKLQGERVRGLKQQKASAELIEEEVAKLLKLKAVL, the abundance fitness was -0.173 ± 0.093. In the case of EELVKLQGERVRGLKQQKASAELIEEEVAKLLKLKAFL, the abundance fitness is reported as -0.693 ± 0.16. Work on EELVKLQGERVRGLKQQKASAELIEEEVAKLLKLKACL yielded an abundance fitness of -0.057 ± 0.12. With EELVKLQGERVRGLKQQKASAELIEEEVAKLLKLKALL the abundance fitness was -0.164 ± 0.072. Variant EELVKLQGERVRGLKQQKASAELIEEEVAKLLKLKAKL has an abundance fitness of 0.041 ± 0.091. In the case of EELVKLQGERVRGLKQQKASAELIEEEVAKLLKLKAML, the abundance fitness is reported as -0.02 ± 0.11. In the case of EELVKLQGERVRGLKQQKASAELIEEEVAKLLKLKAPL, the abundance fitness is reported as 0.083 ± 0.077. Variant EELVKLQGERVRGLKQQKASAELIEEEVAKLLKLKAHL has an abundance fitness of -0.224 ± 0.097. With EELVKLQGERVRGLKQQKASAELIEEEVAKLLKLKASL the abundance fitness was 0.065 ± 0.076. Work on EELVKLQGERVRGLKQQKASAELIEEEVAKLLKLFAQL yielded an abundance fitness of -0.893 ± 0.11. Variant EELVKLQGERVRGLKQQKASAELIEEEVAKLLKLNAQL has an abundance fitness of 0.597 ± 0.12. With EELVKLQGERVRGLKQQKASAELIEEEVAKLLKLRAQL the abundance fitness was -0.005 ± 0.077. With EELVKLQGERVRGLKQQKASAELIEEEVAKLLKLCAQL the abundance fitness was 0.383 ± 0.09. EELVKLQGERVRGLKQQKASAELIEEEVAKLLKLSAQL gave an abundance fitness of 0.611 ± 0.07. EELVKLQGERVRGLKQQKASAELIEEEVAKLLKLLAQL showed an abundance fitness of -0.051 ± 0.073. Variant EELVKLQGERVRGLKQQKASAELIEEEVAKLLKLMAQL has an abundance fitness of 0.277 ± 0.11. Work on EELVKLQGERVRGLKQQKASAELIEEEVAKLLKLGAQL yielded an abundance fitness of 0.78 ± 0.098. EELVKLQGERVRGLKQQKASAELIEEEVAKLLKLPAQL showed an abundance fitness of 0.394 ± 0.087. With EELVKLQGERVRGLKQQKASAELIEEEVAKLLKLTAQL the abundance fitness was 0.392 ± 0.076. EELVKLQGERVRGLKQQKASAELIEEEVAKLLKLEAQL showed an abundance fitness of 0.193 ± 0.12. EELVKLQGERVRGLKQQKASAELIEEEVAKLLKLYAQL showed an abundance fitness of -0.518 ± 0.098. With EELVKLQGERVRGLKQQKASAELIEEEVAKLLKLIAQL the abundance fitness was -0.335 ± 0.096. EELVKLQGERVRGLKQQKASAELIEEEVAKLLKLVAQL gave an abundance fitness of 0.271 ± 0.086. Variant EELVKLQGERVRGLKQQKASAELIEEEVAKLLKLDAQL has an abundance fitness of 0.227 ± 0.094. In the case of EELVKLQGERVRGLKQQKASAELIEEEVAKLLKLQAQL, the abundance fitness is reported as 0.414 ± 0.14. In the case of EELVKLQGERVRGLKQQKASAELIEEEVAKLLKLHAQL, the abundance fitness is reported as -0.532 ± 0.091. EELVKLQGERVRGLKQQKASAELIEEEVAKLLKLWAQL showed an abundance fitness of -0.936 ± 0.26. In the case of EELVKLQGERVRGLKQQKASAELIEEEVAKLLKLAAQL, the abundance fitness is reported as 0.627 ± 0.1.
